Source: paper PMC4041915, “CBD binding domain fused γ-lactamase from Sulfolobus solfataricus is an efficient catalyst for (-) γ-lactam production” (BMC Biotechnology, 2014)

Substrate: O=C1NC2C=CC1C2
Assay: purified protein
Conditions: free enzyme, 50 mM phosphate pH 7.0, 70°C (standard assay), 4.6-32.2 mM substrate, racemate taken as the substrate (not stated for the kinetics), only (+) enantiomer hydrolysed

Row | Protein | Km [mM] | Km (preparation has a low-) [mM]
1 | Cbd-Linker-Gla (cbd-linker-gla fusion enzyme; (+) γ-lactamase Gla) (Saccharolobus solfataricus P2) (protein) MGIKLPTLEDLREISKQFNLDLEDEELKSFLQLLKLQLESYERLDSLPDYTPRVKYQRTLGRPPMKEENPYGALVWITSIKGKEEGKLKGKRICIKDNVMIAGIPMLNGSKMLEGFVPHMDATVVSRILDEAGEIVAKTTCEDLCFSGGSHTSYPWPVLNPRNPEYMAGGSSSGSAVAVASGYCDMAVGGDQGGSIRIPSSWVGIYGLKPTHGLVPYTGAFSIEPTLDHLGPMANTVKDVALLLEVIAGRDELDSRQPDSLPPPPVKPYSKLIDGDVKDMKVGIVKEGFNWSNSEKDVDELVLDSAKKLEDYGIKVEDTSIPLHRMGLDIWTPIAIEGATATMILGSGVGWGRKGLFETQIADFFGNSLKSRARDLPNTVKGVLMLGYLMIKMYNNRYYAKARNLSIVLKEAYDSALRKYDALIMPTTPMKAMRYKSEPGFDEYFIMALGMINNTAPFDVTGHPAMNIPVGYSNGLPVGLMIIGRHFEEDKVLKLANVFERIKK | 14.3 ± 1.6 | 
2 | Gla-Linker-Cbd (gla-linker-cbd fusion enzyme; (+) γ-lactamase Gla) (Saccharolobus solfataricus P2) (protein) MGIKLPTLEDLREISKQFNLDLEDEELKSFLQLLKLQLESYERLDSLPDYTPRVKYQRTLGRPPMKEENPYGALVWITSIKGKEEGKLKGKRICIKDNVMIAGIPMLNGSKMLEGFVPHMDATVVSRILDEAGEIVAKTTCEDLCFSGGSHTSYPWPVLNPRNPEYMAGGSSSGSAVAVASGYCDMAVGGDQGGSIRIPSSWVGIYGLKPTHGLVPYTGAFSIEPTLDHLGPMANTVKDVALLLEVIAGRDELDSRQPDSLPPPPVKPYSKLIDGDVKDMKVGIVKEGFNWSNSEKDVDELVLDSAKKLEDYGIKVEDTSIPLHRMGLDIWTPIAIEGATATMILGSGVGWGRKGLFETQIADFFGNSLKSRARDLPNTVKGVLMLGYLMIKMYNNRYYAKARNLSIVLKEAYDSALRKYDALIMPTTPMKAMRYKSEPGFDEYFIMALGMINNTAPFDVTGHPAMNIPVGYSNGLPVGLMIIGRHFEEDKVLKLANVFERIKK |  | 5.7 ± 0.1
